Assay results published in US12522635B2, “Amyloid peptide variants” (Loyola Marymount University, priority 2019, dated 2026).

Assays:
[1] = system: RIN-m cells; assay: MTT viability assay, peptide alone or mixed with hIAPP; type: cell-based; settings: for rescue / protection of cells from hIAPP toxicity (words): hIAPP mixed with peptide 1:1, MTT assay; for toxicity of peptide to cells: peptide alone, MTT assay, pancreatic (RIN-m) cells
Excerpt: Cytoprotection can likewise be measured by a number of assays known to the art. One such assay is the MTT assay, which is a colorimetric assay for assessing cell metabolic activity. NAD(P)H-dependent cellular oxidoreductase enzymes in the cytosolic compartment of a cell reduces the tetrazolium dye MTT 3-(4,5-dimethylthiazol-2-yl)-2,5-diphenyltetrazolium bromide to an insoluble form, formazan, which has a purple color. The reduction of MTT (and other tetrazolium dyes) depends on the cellular metabolic activity, so a loss of color in the course of performing an MTT assay indicates low metabolic activity, and is thus an indicator of cell damage and death.
To test cell viability, a MTT colorimetric assay measuring the conversion of yellow tetrazolium salt into purple formazan crystal catalyzed by a mitochondrial reductase was used. Cell viability studies were performed using RIN-m cells (ATCC, CRL-2057). An equal number of RIN-m cells were plated in triplicate and incubated overnight in 96-well plates. The next day, fresh RPMI-1640 with phenol red supplemented with 10% FBS was added to cells. Hexafluoroisopropanol (HFIP) was removed from each individual human and animal IAPP using a centrivap concentrator (LabOnco). All IAPP peptide samples were re-suspended in RPMI-1640 with 10% FBS. To ensure even re-suspension, each resulting IAPP-containing vial was scraped with a pipette tip six times and vortexed (Vortex Genie Mixer) for 15 seconds. The whole process, from drying each IAPP peptide to adding each IAPP peptide to the cells was uniform to ensure that each sample was incubated for an equal amount of time with each IAPP peptide. IAPP peptides were added to cells and incubated for 46 hours at 37° C. Post-incubation, the media in each well was replaced by fresh DMEM/F-12 without phenol red. MTT (3-(4,5-dimethyl-2-thiazolyl)-2,5-diphenyl-tetrazolium bromide) was added into each well and incubated at 37° C. for 2 hours. Formazan crystals, formed on the bottom of the wells, were re-suspended in solubilization buffer (20% SDS and 50% dimethylformamide). The absorbance in each well was taken at 570 nm using a Multiskan FC Microplate Photometer (Thermos Fisher Scientific). Media were obtained from ATCC. All incubations took place in a water jacketed incubator in 5% carbon dioxide at 37° C. (Shell Lab).
The MTT viability assay was used to measure cell viability of RIN-m cells upon addition of hIAPP alone, the addition of each animal IAPP peptide alone, and hIAPP mixed with each animal IAPP peptide (results shown in FIG. 5). RIN-m cells alone were used as a control and set to 100% cell viability. […] Addition of raccoon IAPP to hIAPP increased the cell viability from 55% to an average of 72% (p=0.005705). Addition of chicken IAPP variant to hIAPP increased cell viability to an average of 76% (p=0.013556).

[2] = AFM of peptide alone (self-aggregation / fibril formation); type: physicochemical; settings: peptide alone, incubated 40 minutes at 37° C. with shaking
Description: (§1) Samples labeled with hIAPP contained 40 μM hIAPP. The sample with pramlintide and hIAPP contained a 2:1 molar mixture (80 μM Pramlintide mixed with 40 μM hIAPP). The samples with raccoon IAPP and Pramlintide alone contained 40 μM of the indicated peptides. Each sample was incubated for 40 minutes at 37° C. with shaking; conditions known to promote hIAPP amyloid formation. All scans show raw data with no flattening and are […].
(§2) Samples of hIAPP with or without animal IAPP were prepared as described in Example 1 and were then incubated with shaking at 37° C. for 40 minutes. After this incubation, 17 μL of each sample was deposited onto freshly cleaved mica. Samples were incubated for 5 minutes at room temperature before washing with 200 μL sterile water. After drying, the samples were scanned using an MFP-3D atomic force microscope (Asylum Research) set on A/C mode and a 240 m silicon cantilever (Olympus).
(§3) Many of the animal IAPP variants are known to likewise form fibrils and yield amyloid-plaques when scanned via AFM. […] This is in spite of the fact that all of these IAPP peptides (except polar bear IAPP) are known to aggregate and form fibrils themselves under these or similar conditions

[3] = target: T1, human IAPP (hIAPP) (Homo sapiens, UniProt P10997); assay: Atomic force microscopy (AFM) of hIAPP fibril formation when mixed with IAPP peptides; type: biochemical; settings: for inhibition of hIAPP fibril formation, AFM: 37 μM hIAPP and 75 μM peptide, 37° C. with shaking for 40 minutes; for inhibition of hIAPP fiber formation: FIG. 22: 37 μM hIAPP mixed with 37 μM peptide, 37° C. with shaking for 30 minutes
T1 construct: This 37 amino acid polypeptide is co-secreted from pancreatic β-islet cells with insulin
T1 sequence (P10997 34-70 limits assumed): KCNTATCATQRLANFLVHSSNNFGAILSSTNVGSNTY
Description: as §1
Each sample contained 37 μM hIAPP and 75 μM of the indicated peptide. Samples were incubated at 37° C. with shaking for 40 minutes. All scans show raw data with no flattening and are […].
Each sample contained 37 μM hIAPP mixed with 37 μM of the indicated peptide. Samples were incubated at 37° C. with shaking for 30 minutes before depositing each sample onto freshly cleaved mica.
as §2, §3

[4] = target: T1, human IAPP (hIAPP); assay: Thioflavin T binding assay of hIAPP aggregation when mixed with IAPP peptides; type: biochemical; settings: for inhibition of hIAPP aggregation, thioflavin T binding: hIAPP mixed with peptide, incubated at 37° C. with shaking
Excerpt: Any of a number of assays known to the art can be used to evaluate the ability of IAPP peptides to inhibit hIAPP aggregation and/or protect cells from hIAPP toxicity. Thioflavin T (ThT) binding is one such technique for identifying amyloid formation in real time. Human IAPP is known to bind thioflavin T during aggregation and amyloid formation, and upon binding to amyloid fibrils ThT will give a strong fluorescence signal at approximately 482 nm when excited at 450 nm. ThT fluorescence correlates linearly with amyloid concentration in a sample and therefore can be used to determine the amount of aggregation in a sample. This technique can therefore be used for identifying substances with amyloid-inhibiting potential when such substances are mixed with human IAPP under conditions known to result in the formation of aggregates by hIAPP. Determining the extent of aggregation can also be determined using other techniques, such as Atomic Force Microscopy (AFM), which can provide information about particle dimensions, shape, and substructure with nanometer resolution. In the foregoing assays and others that can be used by one of skill in the art, significant inhibition can be determined using a t-test by measuring the difference between hIAPP and hIAPP combined with an IAPP peptide.
To identify IAPP peptides having inhibitory potential against hIAPP aggregation, the peptides shown in FIG. 1 from a number of species (cow, degu, guinea pig, horse, pig, rat, and sheep[…]) were mixed with hIAPP at a 2:1 molar ratio of animal peptide to hIAPP and incubated under conditions known to promote hIAPP aggregation and fibril formation. IAPP alone, or hIAPP mixed with an animal IAPP, was pipetted into a glass tube and the HFIP was removed under speed-vacuum. The resulting peptide sample was dissolved in 20 mM Tris buffer pH 7.4.
37 μM human IAPP was mixed with 75 μM of each indicated animal IAPP. Aggregation was initiated by incubating samples at 37° C. with shaking at 200 rpm for 40 minutes. At indicated time points, a 17 μL aliquot of each sample was mixed with 663 μL of 50.0 μM thioflavin T in 20 mM Tris buffer (pH 7.4). Thioflavin T fluorescence emission was then recorded at 488 nm using a Hitachi F-7000 fluorescence spectrophotometer.
After 40 minutes, these samples were monitored for their ability to bind thioflavin T (see FIG. 2) and their ability to form fibrils as identified with atomic force microscopy.
Human IAPP (37 μM) was mixed with each of the indicated Weddell seal variants (at 75 μM) and incubated for 30 minutes at 37° C. with shaking at 200 rpm. The Weddell seal IAPP peptides were likewise subjected to atomic force microscopy as described in Example 2.
Human IAPP was mixed with each of the indicated raccoon variants and incubated at 37° C. with shaking.
Human IAPP was mixed with each of the indicated chicken variants and incubated at 37° C. with shaking. […] However, it was able to protect cells in MTT assays, so it is believed to inhibit formation of toxic oligomers while having a lesser effect on inhibiting the formation of fibers (which are less toxic and less able to bind ThT).
Human IAPP was mixed with each of the indicated chicken variants and incubated at 37° C. with shaking.

| Molecule | cell viability, peptide alone ([1]; 12.8 μM, RIN-m cells, 46 hours, cells alone set to 100%) | aggregation / fibril formation of peptide alone, AFM [2] | rescue / protection of cells from hIAPP toxicity (words) [1] | inhibition of hIAPP fibril formation, AFM [3] | inhibition of hIAPP aggregation, thioflavin T binding [4] | rescue / protection of cells from hIAPP toxicity (words) ([1]; listed as Rac-L26Y) | toxicity of peptide to cells [1] | inhibition of hIAPP fiber formation [3] | rescue / protection of cells from hIAPP toxicity (words) ([1]; listed as Ch-122L) | inhibition of hIAPP aggregation (summary statement) ([4]; peptide mixed with hIAPP, no single assay (thioflavin T and AFM)) |
| --- | --- | --- | --- | --- | --- | --- | --- | --- | --- | --- |
| CC[C@H](C)[C@H](NC(=O)[C@H](C)NC(=O)CNC(=O)[C@H](Cc1ccccc1)NC(=O)[C@H](CC(N)=O)NC(=O)[C@H](CC(N)=O)NC(=O)[C@H](CO)NC(=O)[C@H](CO)NC(=O)[C@H](Cc1c[nH]cn1)NC(=O)[C@@H](NC(=O)[C@H](CC(C)C)NC(=O)[C@H](Cc1ccccc1)NC(=O)[C@H](CC(N)=O)NC(=O)[C@H](C)NC(=O)[C@H](CC(C)C)NC(=O)[C@H](CCCNC(=N)N)NC(=O)[C@H](CCC(N)=O)NC(=O)[C@@H](NC(=O)[C@H](C)NC(=O)[C@@H]1CSSC[C@H](NC(=O)[C@@H](N)CCCCN)C(=O)N[C@@H](CC(N)=O)C(=O)N[C@@H]([C@@H](C)O)C(=O)N[C@@H](C)C(=O)N[C@@H]([C@@H](C)O)C(=O)N1)[C@@H](C)O)C(C)C)C(=O)N[C@@H](CC(C)C)C(=O)N[C@@H](CO)C(=O)N[C@@H](CO)C(=O)N[C@H](C(=O)N[C@@H](CC(N)=O)C(=O)N[C@H](C(=O)NCC(=O)N[C@@H](CO)C(=O)N[C@@H](CC(N)=O)C(=O)N[C@H](C(=O)N[C@@H](Cc1ccc(O)cc1)C(N)=O)[C@@H](C)O)C(C)C)[C@@H](C)O [hIAPP, reference compound] | 55+/−5% | forms high-density fibrils | – | – | – | – | – | – | – | – |
| KCNTATCVTQRLADFLVRSSSNIGAIY (Gallus gallus truncation) [C1-27] | – | – | rescued cells from hIAPP-induced cytotoxicity | did | inhibited hIAPP aggregation | – | – | – | – | – |
| KCNTATCVTQRLADFLVRSSSNIGAIYSP (Gallus gallus truncation) [C1-29] | – | – | rescued cells from hIAPP-induced cytotoxicity | amyloid fibers were formed and did | inhibited hIAPP aggregation | – | – | – | – | – |
| KCNTATCVTQRLANFLLRSSNNLGAIYSPTNVGSNTY (Procyon lotor mutation) [Rac_L26Y] | – | – | improved cell viability in the presence of hIAPP | – | inhibited hIAPP aggregation | rescue cells from hIAPP toxicity | minimal inherent toxicity | stood out for its ability to inhibit hIAPP fiber formation | – | – |
| KCNTATCVTQRLADFLVRSSSNLGAIYSPTNVGSNTY (Gallus gallus mutation) [Ch_I22L] | – | – | rescued cells from hIAPP-induced cytotoxicity | – | inhibited hIAPP aggregation | – | minimal inherent toxicity | able to inhibit hIAPP fiber formation | rescue cells from hIAPP toxicity | – |
| rat IAPP: naturally occurring IAPP peptide of rat origin (FIG. 1) | – | – | not capable of protecting RIN-m cells from the toxic effects of hIAPP | either had no effect on hIAPP fibril formation or appeared to promote fibrils with hIAPP | – | – | improved effect on cell viability | – | – | failed to inhibit the aggregation of human IAPP |
| KCNTATCATQRLANFLVRSSNNLGAILSSTNVGSNTY (Leptonychotes weddellii mutation) [WS_RL] | – | – | rescued cells from hIAPP toxicity | strong inhibitors of hIAPP fiber formation | inhibited hIAPP aggregation | – | – | – | – | – |
